How the values were obtained:
[1] = tested on: BMS human breast cancer cells; assay: Experimental metastasis in vivo (lung colonization); set-up: species or system mouse
Method: FIGS. 5A, 5B, 5C. ScFvs Bc-12 and Bc-15 prevent hematogenous breast cancer metastasis. (A) Left: Lungs of female SCID mice 32 days after i.v. injection with 1×10^5 BMS human breast cancer cells. The mice were treated with 50 μg Bc-12 or Bc-15 in 100 μl PBS (i.v.) on days 1, 2, 3 and 4. Controls received PBS only. Right: Numbers of lung surface metastases for each animal, horizontal lines indicate the median number of metastases per group. […] (B) Left: Histological sections of the above mouse lungs, stained with hematoxylin/eosin. Metastases were counted in six sets of three consecutive sections separated by 140 μm for each lung. Right: Number of metastases counted in sections of individual lungs, horizontal lines indicate median number of metastases per animal group. […] (C) Effect of Bc-15 treatment on established breast cancer metastasis in the lungs. Female SCID mice were injected i.v. with 5×10^5 DsRed2-tagged MDA-MB 435 breast cancer cells expressing constitutively activated integrin αvβ3D723R. Mice were treated on day 7, 9, 11 and 14, 16, 18 by i.v. injections of scFv Bc-15 or its RGE mutant, Mut-15 (40 μg/dose). Metastatic foci were enumerated by fluorescence microscopy on day 19. Left: Images of typical tumor foci within the lung tissue in Mut-15 (top) or Bc-15 treated mice (bottom) (bar: 50 μm). Right: Number of metastatic foci within the lung tissue of each animal, horizontal line: median number of metastases per group.
Experimental metastasis in vivo. 1×10^5 BMS human metastatic breast cancer cells were injected into the lateral tail veins of 9 week old female C.B17/lcrTac-Prkdc scid mice (Taconic Farms) (n=8 to 10) together with a 50 μg bolus dose of scFv. I.v. Injections of 50 μg scFv bolus doses were repeated on days 2, 3 and 4 of the experiment. Control animals received vehicle only (PBS). For in vivo use, endotoxin was removed from scFv preparations on Detoxy-Gel resin (Pierce). Remaining traces ranged from 0.001 to 0.07 EU endotoxin/mg scFv (LAL test, Bio Whittaker). On day 32, mice were euthanized, dissected, the lungs excised, fixed in Bouin's solution, and metastatic foci counted at the lung surface under a dissecting microscope. The same lungs were embedded in paraffin, and 10 μm sections were cut and stained with hematoxylin/eosin. Per lung, 7 sets of three consecutive sections were collected, separated by 140 μm. The sections were randomized and coded, and the total number of metastatic foci counted.
To test directly whether targeting activated integrin αvβ3 with the ligand mimetic antibodies Bc-12 and-15 affects target organ colonization by circulating metastatic breast cancer cells, 1×10^5 BMS human breast cancer cells were injected intravenously into female C.B-17 SCID mice, together with 50 μg sterile, endotoxin free preparations of Bc-12 or Bc-15 (n=8-10 mice per group). At an average blood volume of 2 ml per mouse, this provides an initial scFv concentration of 1 μM. The clearance time for scFv antibody fragments in the circulation is less than 1 h. Kortt et al., Biomol. Eng, 18: 95-108, 2001. Tumor cells may remain in the circulation for several days. Therefore, scFv antibody injections (50 μg bolus doses, i.v.) were repeated on the second, third and fourth day. […] After 32 days, the mice were euthanized, dissected and analyzed by gross examination. […] The lungs were excised, fixed, and metastatic foci counted at the lung surface. Each of the control treated mice had tumor foci on their lungs (range: 8 to 68 foci per lung). In stark contrast, only two animals in the Bc-12 treated group, and 1 animal in the Bc-15 treated group had one visible nodule at their lung surface (FIG. 5A).
Per lung, six sets of three consecutive sections, separated by 140 μm, were collected. The sections were randomized and coded, and the total number of metastatic foci counted. All control animals had metastases in their lung tissues (range: 7 to 48 counts per lung), and those were of considerable size (FIG. 5B top image). […]

[2] = tested on: matrix deprived BMS breast cancer cells; assay: Apoptosis of matrix deprived breast cancer cells; type: cell-based, human; conditions: 3.7 μM scFv, ultra-low-adhesion plates, 20 hrs
Method: FIGS. 3A, 3B, 3C, 3D, 3E. scFv Bc-12 and Bc-15 inhibit αvβ3 mediated adhesive breast cancer cell functions. (A) Adhesion of BMS human breast cancer cells to fibrinogen (Fg), vitronectin (VN) or type I collagen (Col I) in the absence or presence of 3 μM Bc-12, Bc-15 or their RGE mutants Mut-12, Mut-15, compared to 200 μM GRGDSPK peptide (SEQ ID NO: 11). Protein coating concentrations: 10 μg/ml (VN, Col I) or 20 μg/ml (Fg). Adhesion time: 30 min at 37° C. (B) Effect of scFvs on haptotactic BMS cell migration toward a fibrinogen substrate (16 hrs at 37° C. in transwell chambers with or without 2 μM Bc-12, Bc-15 or their RGE mutants Mut-12 or Mut-15, compared to 200 μM GRGDSPK peptide) (SEQ ID NO: 11). (C) Effect of scFvs on breast cancer cell arrest during blood flow. Metastatic BMS cells, labeled with hydroethidine, were suspended in human blood (anticoagulated with 50 nM PPACK) and perfused over a collagen I matrix at a venous wall shear rate of 50 s^−1. Under these conditions, breast cancer cells arrest by αvβ3 mediated binding to adherent, thrombus forming platelets. Tumor cell adhesion was quantified by image acquisition at 30 predefined positions during blood flow. Left: representative images of platelet signal (thrombi, green fluorescence) and tumor cell signal (red fluorescence) at identical x,y positions. […]

B1: Bc-12: patient derived human scFv antibody against activated αvβ3 with RGD motif in CDR-H3; cDNA ATCC PTA-6303 (protein)
scFv: MAQVQLVQSGAEVKKPGASVKVSCKASGYTFSNYGITWVRQAPGQGLEWMGWINNGNTHYAQKFQGRVTMTTDTSTSTAYMELRSLRSDDTAVYYCARDPRGDDEPYWGQGTLVTVSSGGGGSGGGGSGGGGSEIVLTQSPLSLPVTLGQPASISCRSSQNLVYSDGNTYLSWFQQRPGQSPRRLIYKVSNRDSGVPDRFSGSGSGTDFTLKISRVEAEDIGVYYCMQGTHWPPRTFGQGTKVEIKRGLGGLVDYKDDDDK
- health status during the experiment ([1]; 50 μg i.v. days 1-4, 32 days): appeared healthy
- number of lung surface metastases versus PBS control ([1]; 50 μg i.v. days 1-4, day 32, P<0.001 Kruskal Wallis): significantly fewer metastases
- number of metastases in lung sections versus PBS control ([1]; P<0.005 Kruskal Wallis): significantly fewer detectable metastases
- animals with one visible nodule at lung surface ([1]; SCID mice, 50 μg i.v. days 1-4, day 32, n=8-10 per group, controls 8 to 68 foci per lung): two
- gross examination at dissection ([1]; day 32): No obvious abnormalities
- mice with microscopically detectable metastases in lung tissue ([1]; histological sections, day 32, all controls positive): 3 of 10
- viability of matrix deprived cells (apoptosis) [2]: resulted in apoptotic cell death
